Tests used:
DDX3X = assay: ATPase assay of DDX3X; format: biochemical, human; conditions: full-length Flag-DDX3X, dsRNA 17-68 nM, 37°C, 40 min, 1 mM ATP; n=3
Protocol: For the ATPase assay, Flag-tagged DDX3X full-length constructs were expressed in HEK293T cells. After purifying and eluting DDX3X from the beads, an aliquot of the eluates was resolved by SDS-PAGE in order to monitor the different DDX3X levels via western blotting and ImageJ. Based on this comparison, similar amounts of full-length DDX3X protein were used. Approximately 100 ng Flag-DDX3X protein and 10 ng His-CK1ε were used in a 60 μl reaction mix (reaction buffer: 20 mM Tris-HCl, pH 7.4, 200 mM NaCl, 0.5 mM DTT, 1 mM MgCl2, 1 mM ATP) with dsRNA (17 nM, 34 nM, 68 nM); the reaction was carried out at 37°C for 40 min. To phosphorylate DDX3X, 500 ng His-CK1εΔC or His-CK1εΔC^K38R were added in kinase buffer before eluting the DDX3X protein from the Sepharose magnetic Flag beads (Sigma). Incubation was performed at 37°C for 30 min. Then, beads were washed with 50 mM Tris-HCl, pH 7.5 and 500 mM NaCl before elution with Flag peptide. Termination of the helicase reaction was done with 10 μl of 50% TCA solution added to each reaction followed by centrifugation at 3000 g for 5 min at 4°C. Reaction mix was mixed with coloring solution (35 mM ammonium molybdate, 10 mM zinc acetate, 10% ascorbic acid, pH 5) in a 96-well plate before analysis using a spectrometer (wavelength 700 nm).

CK1ε = assay: Mass spectrometric detection of DDX3X phosphorylation by CK1ε in vitro; format: biochemical, human; parameters: key to Probability of phosphorylation, T469 (symbol) / Probability of phosphorylation, S470 (symbol) / Probability of phosphorylation, S429 (symbol): –: no phosphorylation detected; conditions: phosphorylated by CK1ε in vitro; tryptic digestion, MS
Protocol: (§1) Kinase assays were carried out essentially as described ([Cruciat et al., 2013]). For kinase assays, full-length DDX3X protein was expressed and purified from HEK293T cells as described for the ATPase assay. Deletion constructs were purified from E. coli. The eluted proteins were visualized using Coomassie Blue and the intensity of the protein bands was measured using ImageJ. The amounts used for kinase assays were estimated based on this staining. Where indicated, dsRNA was premixed with proteins at room temperature (RT) for 15 min before subjecting samples to radioactive kinase assays. The CK1 substrate peptide […] for the kinase assay and samples was analyzed using p81 phosphocellulose (Biomol) as described ([Zhai et al., 1992]). 0.3 µM CK1δ/ε-derived and control peptides were used ([Schacherl et al., 2015]). For mass spectrometric analyses DDX3X helicase core (His-DDX3X^168-582) as well as the C-terminal helicase domain (His-DDX3X^414-582) were in vitro phosphorylated by CK1ε. Also, reactions without addition of kinase were performed and analyzed in order to correct for false-positive results. Mass spectrometry data acquisition and analysis of trypsin-digested samples were performed at the Core Unit Mass Spectrometry and Proteomics (Ulm University) essentially as described in [Meng et al. (2016)].

[1] = system: DDX3X-stimulated CK1ε (CK1εΔC); assay: In vitro radioactive kinase assay, DDX3X-stimulated CK1ε activity; format: biochemical, human; conditions: recombinant DDX3X, CK1 peptide substrate, radioactive; n=3
Protocol: as §1

[2] = system: endogenous CK1 / CK1 sensor in HEK293T cells; assay: CK1 FRET biosensor, microplate reader FRET/CFP ratio; format: cell-based, human; conditions: HEK293T, n=3
Protocol: HEK293T cells were seeded at a density of 20,000 cells/well on 96-well black microplates (PS, μClear, clear bottom, chimney well, Greiner No. 655090). Transfection was performed as described above. Unless indicated otherwise, the respective cell populations were transfected with 50-100 ng CK1 FRET biosensor, 100 ng regulator (i.e. N-Flag DDX3X) and 1-10 ng kinase (i.e. N-Flag CK1ε). Either empty pCS2 N-Flag vector or luciferase were used to transfect the same amount of DNA in every well. Generally, the different samples were run in triplicate for each individual experiment. […]
Where applicable, the small-molecule CK1 inhibitor D4476 (BioVision) was added to the cells 2-4 h prior to the analysis. […] Analysis was performed 48-60 h after transfection on an Infinite M1000 PRO microplate reader (Tecan) by exciting CFP with a wavelength of 433 nm and measuring the resulting emission at 460-600 nm in 2 nm increments. Fluorometric spectra were background subtracted with spectra recorded from wells with non-transfected cells. Resulting FRET/CFP ratios were calculated by dividing the intensity values at the respective peaks (478 nm for CFP, 528 nm for YFP) and analyzed essentially as described ([Fritz et al., 2013]). […]

[3] = system: Dvl phosphorylation in HEK293T cells; assay: Dvl phosphorylation shift on Western blot; format: cell-based, human; conditions: 50 or 100 ng Flag-DDX3X DNA

B1: CK1εΔC: CK1ε lacking the C-terminal 112 amino acids, constitutively active (protein, UniProt P49674 1-304, looked up, fragment)
chain: MELRVGNKYRLGRKIGSGSFGDIYLGANIASGEEVAIKLECVKTKHPQLHIESKFYKMMQGGVGIPSIKWCGAEGDYNVMVMELLGPSLEDLFNFCSRKFSLKTVLLLADQMISRIEYIHSKNFIHRDVKPDNFLMGLGKKGNLVYIIDFGLAKKYRDARTHQHIPYRENKNLTGTARYASINTHLGIEQSRRDDLESLGYVLMYFNLGSLPWQGLKAATKRQKYERISEKKMSTPIEVLCKGYPSEFSTYLNFCRSLRFDDKPDYSYLRQLFRNLFHRQGFSYDYVFDWNMLKFGAARNPEDV
modifications: His tag
effect of CK1ε protein on RNA-stimulated ATPase activity of DDX3X (DDX3X): much less stimulated by dsRNA

B2: CK1εΔC^K38R: kinase-dead mutant of CK1εΔC (protein, UniProt P49674 1-416, looked up, variant K38R del305-416)
Casein kinase I isoform …: MELRVGNKYRLGRKIGSGSFGDIYLGANIASGEEVAIRLECVKTKHPQLHIESKFYKMMQGGVGIPSIKWCGAEGDYNVMVMELLGPSLEDLFNFCSRKFSLKTVLLLADQMISRIEYIHSKNFIHRDVKPDNFLMGLGKKGNLVYIIDFGLAKKYRDARTHQHIPYRENKNLTGTARYASINTHLGIEQSRRDDLESLGYVLMYFNLGSLPWQGLKAATKRQKYERISEKKMSTPIEVLCKGYPSEFSTYLNFCRSLRFDDKPDYSYLRQLFRNLFHRQGFSYDYVFDWNMLKFGAARNPEDV
modifications: His tag
effect of CK1ε protein on RNA-stimulated ATPase activity of DDX3X (DDX3X): still allowed dsRNA stimulation of the ATPase activity

B3: His-DDX3X^414-582: C-terminal helicase domain of DDX3X (aa 414–582), 6× histidine tag (protein)
chain: NITQKVVWVEESDKRSFLLDLLNATGKDSLTLVFVETKKGADSLEDFLYHEGYACTSIHGDRSQRDREEALHQFRSGKSPILVATAVAARGLDISNVKHVINFDLPSDIEEYVHRIGRTGRVGNLGLATSFFNERNINITKDLLDLLVEAKQEVPSWLENMAYEHHYKG
modifications: left off: His, end not stated, kept
notes: C-terminal helicase domain of DDX3X (aa 414–582), 6× histidine tag
Probability of phosphorylation, S429 (symbol) (CK1ε): – | Probability of phosphorylation, S470 (CK1ε): 100% | Probability of phosphorylation, S543 (CK1ε): 92.7% | Probability of phosphorylation, T469 (CK1ε): 100% | stimulation of CK1ε kinase activity in vitro [1]: sufficient to stimulate CK1ε∆C activity

B4: His-DDX3X^168-582: DDX3X helicase core (aa 168–582), 6× histidine tag (protein, UniProt O00571 168-582, looked up, fragment)
chain: VEATGNNCPPHIESFSDVEMGEIIMGNIELTRYTRPTPVQKHAIPIIKEKRDLMACAQTGSGKTAAFLLPILSQIYSDGPGEALRAMKENGRYGRRKQYPISLVLAPTRELAVQIYEEARKFSYRSRVRPCVVYGGADIGQQIRDLERGCHLLVATPGRLVDMMERGKIGLDFCKYLVLDEADRMLDMGFEPQIRRIVEQDTMPPKGVRHTMMFSATFPKEIQMLARDFLDEYIFLAVGRVGSTSENITQKVVWVEESDKRSFLLDLLNATGKDSLTLVFVETKKGADSLEDFLYHEGYACTSIHGDRSQRDREEALHQFRSGKSPILVATAVAARGLDISNVKHVINFDLPSDIEEYVHRIGRTGRVGNLGLATSFFNERNINITKDLLDLLVEAKQEVPSWLENMAYEHHYKG
modifications: N-terminal 6xHis tag
notes: DDX3X helicase core (aa 168–582), 6× histidine tag
Probability of phosphorylation, S429 (CK1ε): 100% | Probability of phosphorylation, S470 (symbol) (CK1ε): – | Probability of phosphorylation, S543 (CK1ε): 88.7% | Probability of phosphorylation, T469 (symbol) (CK1ε): –

B5: DDX3X: human DEAD box RNA helicase DDX3X (UniProt O00571) (protein)
chain: MSHVAVENALGLDQQFAGLDLNSSDNQSGGSTASKGRYIPPHLRNREATKGFYDKDSSGWSSSKDKDAYSSFGSRSDSRGKSSFFSDRGSGSRGRFDDRGRSDYDGIGSRGDRSGFGKFERGGNSRWCDKSDEDDWSKPLPPSERLEQELFSGGNTGINFEKYDDIPVEATGNNCPPHIESFSDVEMGEIIMGNIELTRYTRPTPVQKHAIPIIKEKRDLMACAQTGSGKTAAFLLPILSQIYSDGPGEALRAMKENGRYGRRKQYPISLVLAPTRELAVQIYEEARKFSYRSRVRPCVVYGGADIGQQIRDLERGCHLLVATPGRLVDMMERGKIGLDFCKYLVLDEADRMLDMGFEPQIRRIVEQDTMPPKGVRHTMMFSATFPKEIQMLARDFLDEYIFLAVGRVGSTSENITQKVVWVEESDKRSFLLDLLNATGKDSLTLVFVETKKGADSLEDFLYHEGYACTSIHGDRSQRDREEALHQFRSGKSPILVATAVAARGLDISNVKHVINFDLPSDIEEYVHRIGRTGRVGNLGLATSFFNERNINITKDLLDLLVEAKQEVPSWLENMAYEHHYKGSSRGRSKSSRFSGGFGARDYRQSSGASSSSFSSSRASSSRSGGGGHGSSRGFGGGGYGGFYNSDGYGGNYNSQGVDWWGN
modifications: left off: Flag, N-terminal, kept
cooperation of DDX3X with co-expressed CK1 isoforms (FRET/CFP ratio) ([2]; CK1 sensor with CK1 isoform): predominantly synergized with limiting amounts of CK1ε rather than with CK1δ and CK1α isoforms | effect of co-expressed DDX3X on FRET/CFP ratio of CK1 sensor ([2]; DDX3X without added CK1): not sufficient to significantly enhance endogenous CK1 activity | stimulation of Dvl phosphorylation [3]: the wild-type protein alone could not

Source: article PMC5818060 (Journal of Cell Science, 2018)
